# Results as given in paper PMC5766154.
# B1: biotin 25 bp intercistronic DNA (dsDNA)
# DNA 1: TAAAGTGTGGAGTAAGTGTGGAGAA
# DNA 2: TTCTCCACACTTACTCCACACTTTA
# B2: 25 bp intercistronic DNA (dsDNA)
# DNA 1: TAAAGTGTGGAGTAAGTGTGGAGAA
# DNA 2: TTCTCCACACTTACTCCACACTTTA
# What was measured:
# [1] = target: full-length AdeR (AdeR_FL), response regulator of Acinetobacter baumannii (Acinetobacter baumannii ATCC19606); experiment: SEC
# [2] = target: AdeR receiver domain with linker sequence (AdeR_RD, 1-137) (Acinetobacter baumannii ATCC19606); experiment: SEC
# AdeR_FL R231A [3] = target: T1, AdeR_FL R231A (Acinetobacter baumannii ATCC19606, UniProt E1A0Z5 1-247, R231A); experiment: EMSA
# T1 sequence: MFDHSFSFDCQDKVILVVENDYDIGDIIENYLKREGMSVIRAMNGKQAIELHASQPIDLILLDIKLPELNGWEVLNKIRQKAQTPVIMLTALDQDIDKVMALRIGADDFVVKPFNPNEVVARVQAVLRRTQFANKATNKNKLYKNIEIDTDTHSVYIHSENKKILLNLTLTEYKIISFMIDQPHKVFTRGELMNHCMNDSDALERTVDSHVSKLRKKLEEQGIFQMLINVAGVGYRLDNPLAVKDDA
# AdeR_FL R122A = target: T2, AdeR_FL R122A (Acinetobacter baumannii ATCC19606, UniProt E1A0Z5 1-247, R122A); experiment: ITC
# T2 sequence: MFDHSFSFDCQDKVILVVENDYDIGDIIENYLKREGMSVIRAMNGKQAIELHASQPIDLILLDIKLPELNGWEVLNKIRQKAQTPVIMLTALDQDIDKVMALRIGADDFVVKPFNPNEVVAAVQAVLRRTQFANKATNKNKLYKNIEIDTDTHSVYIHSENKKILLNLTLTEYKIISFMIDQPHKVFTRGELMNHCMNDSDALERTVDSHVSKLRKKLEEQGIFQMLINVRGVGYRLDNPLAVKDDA
# AdeR_FL R205A/R215A = target: T3, AdeR_FL R205A/R215A (Acinetobacter baumannii ATCC19606, UniProt E1A0Z5 1-247, R205A;R215A); experiment: ITC
# T3 sequence: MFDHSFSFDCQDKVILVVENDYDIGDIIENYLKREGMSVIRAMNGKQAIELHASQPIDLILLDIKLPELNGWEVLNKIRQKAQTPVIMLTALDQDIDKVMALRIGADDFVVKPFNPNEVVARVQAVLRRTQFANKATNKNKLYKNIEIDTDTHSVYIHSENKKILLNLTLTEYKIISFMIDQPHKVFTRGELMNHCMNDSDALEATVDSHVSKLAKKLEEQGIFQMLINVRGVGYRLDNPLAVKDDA
# AdeR_FL R231A [4] = target: T1, AdeR_FL R231A; experiment: ITC
# AdeR_DBD = target: T4, AdeR_DBD (Acinetobacter baumannii ATCC19606, UniProt E1A0Z5 138-247); experiment: ITC
# T4 sequence: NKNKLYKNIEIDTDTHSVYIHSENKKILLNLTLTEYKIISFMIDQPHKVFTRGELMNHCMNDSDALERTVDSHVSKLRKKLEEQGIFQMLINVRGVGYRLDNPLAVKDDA
# AdeR_FL D63E = target: T5, AdeR_FL D63E (Acinetobacter baumannii ATCC19606, UniProt E1A0Z5 1-247, D63E); experiment: ITC
# T5 sequence: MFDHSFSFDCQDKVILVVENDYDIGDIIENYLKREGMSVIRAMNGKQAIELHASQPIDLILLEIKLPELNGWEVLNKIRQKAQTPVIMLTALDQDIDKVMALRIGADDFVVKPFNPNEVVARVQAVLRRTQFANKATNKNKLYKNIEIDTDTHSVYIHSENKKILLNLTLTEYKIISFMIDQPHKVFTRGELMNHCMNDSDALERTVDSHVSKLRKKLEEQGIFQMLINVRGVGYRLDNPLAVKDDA
# AdeR_FL = target: T6, AdeR_FL (Acinetobacter baumannii ATCC19606, UniProt E1A0Z5 1-247); experiment: ITC
# T6 sequence: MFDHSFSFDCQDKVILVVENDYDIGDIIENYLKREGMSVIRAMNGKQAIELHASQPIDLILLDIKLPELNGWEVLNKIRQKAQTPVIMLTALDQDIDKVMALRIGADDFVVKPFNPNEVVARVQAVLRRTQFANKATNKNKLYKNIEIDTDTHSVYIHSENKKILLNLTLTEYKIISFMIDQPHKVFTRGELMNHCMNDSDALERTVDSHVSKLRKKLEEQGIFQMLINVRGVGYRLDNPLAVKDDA
molecule,measurement,setting,value
"full-length AdeR (AdeR_FL), response regulator of Acinetobacter baumannii (natural protein)",stoichiometry N,[1],2
"AdeR receiver domain with linker sequence (AdeR_RD, 1-137) (domain or fragment)",stoichiometry N,[2],2
B1,binding result,AdeR_FL R231A [3],no binding
B2,Kd,AdeR_FL R122A,1000 nM
same,binding result,AdeR_FL R205A/R215A,no binding
same,binding result,AdeR_FL R231A [4],no binding
same,Kd,AdeR_DBD,2200 nM
same,binding result,AdeR_FL D63E,binds
same,Kd,AdeR_FL,20 nM
